For 78 substances, OD results are on record in patent US20260000597A1 (priority 2018, published 2026).

In the test the target is AchR (Homo sapiens, UniProt P02708). In words: ELISA of screened peptide phages on AchR versus streptavidin (OD450). The conditions noted are these: absorbance at 450 nm. It is filed as binding. As to the method:
The output phages for the 4th and 5th rounds of biopanning in Example 13-1 were inoculated to E. coli, and plated on the agar plates so as to form 100-200 plaques per plate. The plaques were inoculated on 1 ml of an SB liquid medium containing 50 μg/ml of ampicillin by using a sterile tip, and cultured with shaking at 37° C. for 5 hours, followed by the addition of 30 μl of helper phages, and then cultured at 37° C. and 200 rpm for one day. The culture was centrifuged at 12,000 rpm for 2 minutes to collect supernatant, and 2% BSA was added to the supernatant, and used for phage screening.
In a 96-well ELISA plate, 5 μg/ml AchR or streptavidin was added at 50 μl per well, and left at 4° C. overnight. The next day, the solution in each well was discarded, followed by the addition of 2% BSA, and then blocked at room temperature for 2 hours. After the solution was all discarded, the wells were washed three times with Tris (20 mM, pH7). In addition, 100 μl of each of the phage solutions obtained from the above-prepared plaques was dispensed into wells and left at 30° C. for 1 hour. After the solution in the wells was all discarded, the wells were washed three times with Tris (20 mM, pH 7), and then the HRP-conjugated anti-M13 antibody diluted 1:2,000 was added at 100 μl per well, followed by culture at 30° C. for 1 hour. After the wells were washed three times with Tris (20 mM, pH7), 100 μl of tetramethylbenzidine was added to each well to induce a color development reaction, and then the reaction was stopped by the addition of 100 μl of 1M H2SO4, and the absorbance at 450 nm (OD450) was measured. The measured absorbance was converted into a ratio of AchR absorbance to streptavidin absorbance (AchR signal/streptavidin signal), and the results are shown in FIGS. 14 to 16.

[1] abbreviates: ELISA of selected 14-mer (L3) peptide phages on AchR, Spep-2 positive control.
The mark [2] stands for this setting: phage ELISA, 5 μg/ml AchR, 4th and 5th round biopanning phages.
[3] abbreviates: ELISA of selected 11-mer (L2) peptide phages on AchR, Spep-2 positive control.

Sequence of AchR (P02708 21-457): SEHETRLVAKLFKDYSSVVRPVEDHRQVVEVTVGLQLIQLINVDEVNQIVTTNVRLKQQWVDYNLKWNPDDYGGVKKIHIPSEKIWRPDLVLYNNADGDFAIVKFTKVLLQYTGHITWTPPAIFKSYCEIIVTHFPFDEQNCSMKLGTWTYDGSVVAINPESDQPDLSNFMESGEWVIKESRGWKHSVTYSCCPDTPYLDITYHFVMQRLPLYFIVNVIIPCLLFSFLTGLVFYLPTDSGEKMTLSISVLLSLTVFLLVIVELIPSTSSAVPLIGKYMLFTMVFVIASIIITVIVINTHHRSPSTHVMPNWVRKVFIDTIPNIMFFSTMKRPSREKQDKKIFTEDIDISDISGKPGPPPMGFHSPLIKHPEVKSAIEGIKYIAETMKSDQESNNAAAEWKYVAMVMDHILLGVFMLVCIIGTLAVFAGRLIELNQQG

The substance “L3-78 (FITKSRRQQFRNQG; AchR binding peptide) [Peptide L3-78]” yielded an OD under setting [1] of 0.712.
On to “L3-72 (TGCRCKRSMYKNLH; AchR binding peptide) [Peptide L3-72]”, for which, under setting [1], the OD is given as 0.746.
For RDRKFVQK [Peptide L1-154], the OD under setting [2] turned out to be 0.633.
Substance “L3-144 (CSYKLRRCDMRLWG; AchR binding peptide) [Peptide L3-144]” had an OD under setting [1] of 0.578.
Regarding RIRRAHDR [Peptide L1-165], the OD under setting [2] turned out to be 0.644.
“L3-47 (LYEKYKKHNNREDD; AchR binding peptide) [Peptide L3-47]” registered an OD under setting [1] of 0.558.
The substance “L3-29 (CASKPRRTYLRAAN; AchR binding peptide) [Peptide L3-29]” yielded an OD under setting [1] of 0.789.
RCKKNPEK [Peptide L1-66] had an OD under setting [2] of 0.605.
In turn, “L3-68 (YSSKSRKLSPRTPR; AchR binding peptide) [Peptide L3-68]” registered an OD under setting [1] of 0.792.
KLRKQKLR [Peptide L1-43] had an OD under setting [2] of 0.601.
Under setting [1], “L3-151 (HTLKPKRLYPRPSE; AchR binding peptide) [Peptide L3-151]” gave an OD of 0.624.
The same measure, in the same setting: with “L3-120 (FLYKAKKALMRDSL; AchR binding peptide) [Peptide L3-120]” the figure was 0.887; with “L3-73 (WTCRMRKYQLRTSE; AchR binding peptide) [Peptide L3-73]”, 0.771; with “L3-52 (GTFKWRKSGARQYL; AchR binding peptide) [Peptide L3-52]”, 0.757.
Turning to KRKKDWWR [Peptide L1-10], the OD under setting [2] is 0.621.
As for “L2-43 (LMDRTRRDMYK; AchR binding peptide) [Peptide L2-43]”, under setting [3], the OD was 0.572.
On the same count and under the same terms, with “L2-144 (PYTRCRKEICK; AchR binding peptide) [Peptide L2-144]” the figure was 0.521.
“L3-156 (IVPRDRKQALRWTN; AchR binding peptide) [Peptide L3-156]” displayed an OD under setting [1] of 0.799.
Consider KEKKLVWK [Peptide L1-174], for which, under setting [2], the OD was 0.596.
“L3-58 (SLPKWRKGGDRVFT; AchR binding peptide) [Peptide L3-58]” had an OD under setting [1] of 0.664.
Regarding “L2-49 (YPFKAKRPAEK; AchR binding peptide) [Peptide L2-49]”, the OD under setting [3] came out at 0.734.
KDKRPECK [Peptide L1-133]: the OD under setting [2] is recorded as 0.504.
As for KDRKVNSR [Peptide L1-97], the OD under setting [2] amounted to 0.546.
Substance RCRKDTAR [Peptide L1-142] came in with an OD under setting [2] of 0.469.
“L2-47 (IEDKGRRINPR; AchR binding peptide) [Peptide L2-47]” showed an OD under setting [3] of 0.707.
Substance “L2-143 (AIIKFRKVQWK; AchR binding peptide) [Peptide L2-143]” displayed an OD under setting [3] of 0.401.
As for “L2-4 (ECYRNRKAYCR; AchR binding peptide) [Peptide L2-4]”, the OD under setting [3] amounted to 0.757.
As for “L2-63 (IDGKWRKICTR; AchR binding peptide) [Peptide L2-63]”, under setting [3], the OD is reported as 0.742.
Still for that read-out and setting: with “L2-166 (QQLRLRKLCGK; AchR binding peptide) [Peptide L2-166]” the figure was 0.579.
Substance RFRRGVRR [Peptide L1-13] gave an OD under setting [2] of 0.73.
Under setting [3], “L2-111 (GYFRPRKETCK; AchR binding peptide) [Peptide L2-111]” returned an OD of 0.594.
Under setting [2], KARRNSLK [Peptide L1-175] came in with an OD of 0.621.
Same read-out and setting: then KERKHEAK [Peptide L1-62], with 0.633.
“L2-89 (PPFKFRKPLGR; AchR binding peptide) [Peptide L2-89]”: the OD under setting [3] is 0.749.
Turning to “L3-119 (TPLKSRKYWNKHAY; AchR binding peptide) [Peptide L3-119]”, the OD under setting [1] was found to be 0.693.
In the case of “GGGRKKRRQRRRGG [Peptide L3-201, reference compound]”, the OD under setting [2] was 0.315.
Turning to “L2-69 (WCCKTKRAVMK; AchR binding peptide) [Peptide L2-69]”, the OD under setting [3] was 0.676.
Substance “L3-55 (HFPRARRFEHRCML; AchR binding peptide) [Peptide L3-55]” had an OD under setting [1] of 0.706.
Turning to “L2-36 (FIPKMRKCSPR; AchR binding peptide) [Peptide L2-36]”, the OD under setting [3] is 0.76.
Under setting [3], “L2-162 (NCDRTRKHWAR; AchR binding peptide) [Peptide L2-162]” showed an OD of 0.584.
For the substance “L3-3 (SGVRYRKWWIRSVV; AchR binding peptide) [Peptide L3-3]”, the OD under setting [1] was 0.88.
Turning to “L3-32 (CATRGKKVFSKRTM; AchR binding peptide) [Peptide L3-32]”, the OD under setting [1] stood at 0.845.
As for KHKRTAQR [Peptide L1-78], under setting [2], the OD is given as 0.642.
Under setting [2], KGKKYYQK [Peptide L1-105] showed an OD of 0.507.
For the substance KEKRLYAR [Peptide L1-149], the OD under setting [2] was 0.34.
As for RGKRHWHR [Peptide L1-179], under setting [2], the OD came to 0.633.
For “L3-88 (PETRHRKMFIRDFW; AchR binding peptide) [Peptide L3-88]”, the OD under setting [1] came out at 0.7.
In the case of KDKRWANR [Peptide L1-77], under setting [2], the OD amounted to 0.636.
“L3-41 (GWLKAKRFPSRPPT; AchR binding peptide) [Peptide L3-41]” registered an OD under setting [1] of 0.81.
“L2-120 (PAARTKRMYGR; AchR binding peptide) [Peptide L2-120]”: the OD under setting [3] was 0.607.
Under setting [1], “L3-126 (YVDRWRRMQYKLSI; AchR binding peptide) [Peptide L3-126]” came in with an OD of 0.542.
With KSRRAVFR [Peptide L1-151], under setting [2], the OD turned out to be 0.479.
For the substance KWRREQFR [Peptide L1-76], the OD under setting [2] worked out at 0.588.
KRRRFRWK [Peptide L1-40]: under setting [2], the OD was 0.424.
On to “L2-146 (LIGKFKKPFYR; AchR binding peptide) [Peptide L2-146]”, for which the OD under setting [3] came to 0.605.
Turning to “L3-75 (QIPKQKKQEQRAIS; AchR binding peptide) [Peptide L3-75]”, under setting [1], the OD was 0.72.
Under setting [1], “L3-80 (MEGREKKSYNKGEN; AchR binding peptide) [Peptide L3-80]” gave an OD of 0.589.
With KIKKAARR [Peptide L1-35], the OD under setting [2] was 0.556.
In turn, “L2-7 (WQMKTKKEIWK; AchR binding peptide) [Peptide L2-7]” showed an OD under setting [3] of 0.753.
With “L2-161 (AWFRVKRSNCR; AchR binding peptide) [Peptide L2-161]”, the OD under setting [3] was 0.579.
In turn, RARKDAFK [Peptide L1-11] yielded an OD under setting [2] of 0.703.
With “L2-155 (NEARIKKCDVK; AchR binding peptide) [Peptide L2-155]”, under setting [3], the OD was determined as 0.742.
KAKRGHFK [Peptide L1-68]: the OD under setting [2] is 0.55.
In the case of “L3-140 (EHCKWKKMFDKEGE; AchR binding peptide) [Peptide L3-140]”, the OD under setting [1] was 0.607.
In the case of RGRRWFVK [Peptide L1-28], under setting [2], the OD was 0.656.
Regarding “L2-164 (VPTKMKKYETK; AchR binding peptide) [Peptide L2-164]”, the OD under setting [3] is given as 0.733.
Take KFRKGPYR [Peptide L1-135]: the OD under setting [2] came out at 0.479.
As to “L3-137 (QVVRLRRGKNRGTV; AchR binding peptide) [Peptide L3-137]”, the OD under setting [1] was 0.565.
Regarding “L2-159 (CNQKTKKIAEK; AchR binding peptide) [Peptide L2-159]”, under setting [3], the OD turned out to be 0.696.
In the case of “L3-98 (PNGKVRKRIRRRYF; AchR binding peptide) [Peptide L3-98]”, the OD under setting [1] amounted to 0.685.
On to “L3-130 (EHSKHRKDLFRMVG; AchR binding peptide) [Peptide L3-130]”, for which the OD under setting [1] is listed as 0.531.
In the case of “L2-195 (CQAKTRKAEDR; AchR binding peptide) [Peptide L2-195]”, under setting [3], the OD stood at 0.65.
In turn, “L2-178 (VPYRHRRMQFK; AchR binding peptide) [Peptide L2-178]” had an OD under setting [3] of 0.718.
“L2-190 (NLVKSKKVEEK; AchR binding peptide) [Peptide L2-190]” returned an OD under setting [3] of 0.721.
Take RLRKSLGK [Peptide L1-95]: the OD under setting [2] is listed as 0.535.
Take “L2-26 (APWRLKRAPQR; AchR binding peptide) [Peptide L2-26]”: under setting [3], the OD is reported as 0.809.
The substance “L2-77 (VADRQKKTAPK; AchR binding peptide) [Peptide L2-77]” gave an OD under setting [3] of 0.733.
In the case of “L3-45 (PGNRMKKYQNRVHG; AchR binding peptide) [Peptide L3-45]”, the OD under setting [1] is reported as 0.735.
